Measurements: US20260216242A1, “ALPP-SPECIFIC VARIANT ANTIGEN BINDING MOLECULES” (ALMAC DISCOVERY LIMITED, priority 2022, published 2026)

T1: ALPI His homodimer (Homo sapiens, UniProt P09923)
T1 sequence (P09923 with tags, fused parts or gaps): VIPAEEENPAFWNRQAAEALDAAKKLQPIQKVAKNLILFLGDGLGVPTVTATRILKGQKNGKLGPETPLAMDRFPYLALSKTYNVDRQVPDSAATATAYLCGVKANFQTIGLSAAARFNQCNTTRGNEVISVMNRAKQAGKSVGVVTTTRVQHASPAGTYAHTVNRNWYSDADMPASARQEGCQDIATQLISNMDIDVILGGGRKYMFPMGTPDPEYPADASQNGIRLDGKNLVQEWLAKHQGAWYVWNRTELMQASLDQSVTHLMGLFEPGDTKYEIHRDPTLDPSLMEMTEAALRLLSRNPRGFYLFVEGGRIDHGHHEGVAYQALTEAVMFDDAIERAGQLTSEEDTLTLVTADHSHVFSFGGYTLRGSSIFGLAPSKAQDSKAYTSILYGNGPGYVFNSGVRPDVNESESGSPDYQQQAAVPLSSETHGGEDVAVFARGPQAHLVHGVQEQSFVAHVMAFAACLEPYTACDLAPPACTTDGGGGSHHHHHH


Key:
[1] = target: T1, ALPI His homodimer; experiment: ELISA binding to ALPI; settings: 500 ng purified VHH
Method: ELISA was used to test the binding and specificity of the VHHs. ALPP CysHis (SEQ ID NO: 263), ALPI His homodimer (SEQ ID NO: 264) or BSA (Thermo Fisher) were coated onto plates and 500 ng of each purified VHH added. Anti-Llama—HRP antibody was used for detection.

[2] = Thermal stability (Protein Thermal Shift assay); type: physicochemical; settings: VHH domains, first derivative analysis
Method: Thermal stability assays used Applied Biosystems StepOne Real Time PCR system with the Protein Thermal Shift™ dye kit (Thermo Fisher). The assay mix was set up so that the protein was at a final concentration of 20 µM in 20 μL. 5 μL of Thermal Shift™ buffer was added alongside 2.5 μL 8× Thermal Shift™ Dye. Assays were run using the StepOne software and data analysed using Protein Thermal Shift™ software. All data are from first derivative analysis.

[3] = target: T2, ALPP (Homo sapiens, UniProt P05187); experiment: Epitope binning by BLI competition assay; type: binding; settings: BLI competition on immobilised ALPP
Method: To determine epitope cross reactivity BLI competition assays were conducted. AR2G sensors were used and ALPP immobilised as above. ALPP sensors were then dipped into a well containing a saturating concentration of the initial binder for ten minutes to get an association curve. The sensor was then dipped into a well containing the same concentration of initial binder plus 20 nM of a secondary binding.
An increase in the association curve was indicative that the second VHH bound to a distinct epitope from the initial binder. Monomers with identical CDR3s were grouped as likely to be in the same epitope bin and only one from each group used in the epitope binning experiment.

[4] = target: T2, ALPP; experiment: BLI binding kinetics, human ALPP immobilised on AR2G sensors (KD / KD apparent); settings: for hALPP Ka / hALPP Kd: VHH domains
Method: Binding kinetics were determined using the Biolayer Interferometry (BLI) Octet K2 system (Sartorius). Human ALPP, ALPPL2, ALPL (each fused with a cysteine stabilised leucine zipper) and ALPI, (SEQ ID NO: 265, SEQ ID NO: 266 and SEQ ID NO: 267 and SEQ ID NO: 264 respectively) were immobilised in sodium acetate pH5 buffer to AR2G sensors using amine coupling. All assays were conducted in PBS with a plate temperature of 25° C. Ka (M^−1s^−1), Kd (s^−1) and KD (nM) values were determined using Octet Data Analysis High Throughput software (ForteBio) for Biolayer Interferometry.
(§1) Binding kinetics were determined using the Biolayer Interferometry (BLI) Octet K2 or R4 system (Sartorius). Human ALPP, ALPPL2 and ALPL all fused with a disulphide stabilised leucine zipper (SEQ ID NO: 265, SEQ ID NO: 266, and SEQ ID NO: 267) and ALPI His (SEQ ID NO: 264) were used in BLI experiments. For KD apparent measurements, the ALPP proteins were immobilised in sodium acetate pH5 buffer to AR2G sensors using amine coupling. To measure 1:1 interactions, AHC biosensors were used to immobilise Fc-fused proteins. All assays were conducted in HBS-EP with a plate temperature of 25° C. Ka (M^−1s^−1), Kd (s^−1) and KD (nM) values were determined using Octet Data Analysis High Throughput software (Sartorius) for Biolayer Interferometry.
as §1, with “NO:264)” for “NO: 264)”

T2 sequence (P05187 with tags, fused parts or gaps): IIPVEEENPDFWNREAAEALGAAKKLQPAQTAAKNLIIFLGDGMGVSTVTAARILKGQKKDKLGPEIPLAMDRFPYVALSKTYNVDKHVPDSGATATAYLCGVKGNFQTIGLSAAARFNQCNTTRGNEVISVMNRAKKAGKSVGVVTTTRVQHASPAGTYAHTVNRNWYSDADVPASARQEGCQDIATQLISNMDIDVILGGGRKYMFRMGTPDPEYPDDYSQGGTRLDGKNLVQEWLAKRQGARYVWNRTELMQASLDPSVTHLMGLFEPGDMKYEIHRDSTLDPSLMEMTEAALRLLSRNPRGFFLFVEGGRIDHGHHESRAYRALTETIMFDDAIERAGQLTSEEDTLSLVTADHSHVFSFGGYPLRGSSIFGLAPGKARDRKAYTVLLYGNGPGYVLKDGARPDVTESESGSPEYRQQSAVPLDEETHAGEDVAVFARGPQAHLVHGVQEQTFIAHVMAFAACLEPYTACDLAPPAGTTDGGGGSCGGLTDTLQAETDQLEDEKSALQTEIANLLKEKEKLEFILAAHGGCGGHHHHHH

Row | ELISA hALPI [1] | epitope bin [3] | hALPP Ka [4] [M⁻¹ s⁻¹] | hALPP Kd [4] [s⁻¹] | Kd ([4]; VHH domains (His-tagged monomers), PBS, 25° C., read-out: hALPP KD) [nM] | Molecule | Tm [2] [°C]
1 | No Binding | one | 213000 | 0.000017 | – | B11: ALPP targeting VHH domain, SEQ ID NO: 22 (protein) VHH: QVHLVESGGGSVQAGGSLRLSCAASGPSLSNYAMGWFRQAPGKEREFVAGISWGGGRTSYTDSVKGRFTISRDNAKNTVYLQMNNLKPEDTGVYYCAGRYGRGRNVEYEYDYWGQGTQVTVSS | 77.4
2 | No Binding | one | 47400 | <1e-07 | < 0.01 | G03: ALPP targeting VHH domain, SEQ ID NO: 38 (protein) VHH: QVQLVESGGGTAQAGGSLRLACAASGRSVTMGWLGWVPRAERDDLEFITWFNWGTYYANSVNGRFTISTDNADNTVYPQMNRLKPENPAVYYCASFTGYRPLINRLNDVSDCGHGALVAVSS | 74.0
